The target in the assay is Biotinylated SARS-CoV-2 S protein RBD with a C-terminal AviTag (SARS-CoV-2) (UniProt P0DTC2). Nature of the assay: BLI. For orientation: Biolayer interferometry detects binding as a change in optical thickness at a sensor tip.

Chain of NIH-CoVnb-112 (VHH) (VHH): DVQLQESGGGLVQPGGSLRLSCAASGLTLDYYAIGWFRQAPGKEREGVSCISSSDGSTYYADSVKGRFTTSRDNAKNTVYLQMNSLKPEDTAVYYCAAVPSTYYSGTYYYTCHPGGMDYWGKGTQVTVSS

Broadly, the Kd is the equilibrium constant for the complex coming apart. Read a low Kd as a tighter complex. One may read the koff as the rate constant with which the complex falls apart. Low values mean slow dissociation, high ones fast dissociation. Usually kon stands for a measure of how fast the partners come together. High values mean fast association, low ones slow association. In the case of NIH-CoVnb-112 (VHH), the Kd was 4.9 nM, the koff came to 0.000654 s⁻¹ and the association rate constant (kon) came out at 130000 M⁻¹ s⁻¹.

Values taken from paper PMC7755911.
